As a reminder, the Kd is a measure of binding affinity in units of concentration.

Assay in all cases: fluorescence polarisation; increasing concentrations of the RA/RB domain as MBP fusion protein (0.002-300 µM; or MBP alone) titrated to mGppNHp-bound RAS protein (1 µM); 30 mM Tris-HCl pH 7.4, 100 mM NaCl, 5 mM MgCl2, 3 mM DTT; Kd from a quadratic ligand-binding equation
Details in all cases: both partners purified

For one experiment, the target named is T1, RALA, mGppNHp-bound (human, UniProt P11233 1-206).
T1 construct: human RALA; Loaded with mGppNHp
T1 sequence (looked up): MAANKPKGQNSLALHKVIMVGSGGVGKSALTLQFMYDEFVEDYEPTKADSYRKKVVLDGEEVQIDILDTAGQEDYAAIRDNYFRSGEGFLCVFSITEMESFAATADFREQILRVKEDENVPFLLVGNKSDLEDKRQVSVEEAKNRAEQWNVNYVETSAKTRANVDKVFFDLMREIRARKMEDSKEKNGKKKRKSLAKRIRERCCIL

The target in the next experiment is T2, RRAS1, mGppNHp-bound (human, UniProt P10301 1-218).
T2 construct: human RRAS (RRAS1); Loaded with mGppNHp
T2 sequence (looked up): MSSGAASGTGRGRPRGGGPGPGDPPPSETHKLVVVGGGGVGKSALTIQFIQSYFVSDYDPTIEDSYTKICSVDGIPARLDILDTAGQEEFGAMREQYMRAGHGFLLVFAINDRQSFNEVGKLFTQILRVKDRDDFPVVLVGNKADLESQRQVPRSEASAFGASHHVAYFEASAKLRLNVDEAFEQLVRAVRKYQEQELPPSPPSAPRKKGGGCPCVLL

For a further experiment, the target named is T3, RIT1, mGppNHp-bound (human, UniProt Q92963 1-219).
T3 construct: human RIT1; Loaded with mGppNHp

Another experiment has as its target T4, HRAS, mGppNHp-bound (human, UniProt P01112-1 1-189).
T4 construct: human HRAS; Loaded with mGppNHp, a fluorescent non-hydrolysable GTP analogue; That the RAS proteins were the pGEX (GST) constructs is surmised; also called HRAS1; p21HRAS

T3 sequence (Q92963 whole entry): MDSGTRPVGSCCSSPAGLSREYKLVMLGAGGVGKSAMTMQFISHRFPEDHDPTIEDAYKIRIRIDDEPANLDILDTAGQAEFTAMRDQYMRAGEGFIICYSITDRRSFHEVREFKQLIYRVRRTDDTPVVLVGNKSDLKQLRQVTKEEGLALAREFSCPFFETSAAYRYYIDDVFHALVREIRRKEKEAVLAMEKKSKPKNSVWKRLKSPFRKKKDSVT

B1: RASSF2-to-1 variant of the RASSF2 RA domain, MBP fusion protein (domain or fragment, human, UniProt P50749 176-264, looked up)
chain: YNHKTSVFTPKDGSKHNVRINSTMTTPQVLKLLLNKFKIENSAEEFALYVVHTSGEKQKLKATDYPLIARILQGPCEQISKVFLMEKDQ
notes: RASSF2 RA domain (aa 176-264 of P50749, the limits of the wild-type construct) with four hotspot residues changed to those of RASSF1; source: gene synthesis (BioCat) in pMal-c5X-His vector; E. coli, purified
Take B1: the Kd in the experiment with RALA, mGppNHp-bound was determined as 49 µM; with RRAS1, mGppNHp-bound, 100 µM.

B2: RASSF9-to-5 variant of the RASSF9 RA domain, MBP fusion protein (domain or fragment, human, UniProt O75901 25-119, looked up)
chain: EEKEIVVWVCQEEKLDCIKTLHTTSADVIQALLEEHEATFGEKRFLLGKPSDYCIIEKWRGSERVLPPLTRILKLWKAWGDEQPNMQFVLVKADA
notes: RASSF9 RA domain (aa 25-119 of O75901, the limits of the wild-type construct) with five hotspot residues changed to those of RASSF5; source: gene synthesis (BioCat) in pMal-c5X-His vector; E. coli, purified
Regarding B2, the Kd with RIT1, mGppNHp-bound stood at 150 µM; with HRAS, mGppNHp-bound, 40 µM.

These data come from publication PMC8163975 (The Journal of Biological Chemistry, 2021).
